In experiment [1] the target is T1, HA-HDM2 (human, recombinant, wild type) (human, UniProt Q00987 1-491).
T1 construct: human MDM2 (HDM2); also called HA-HDM2 (WT); HA-MDM2 (human); source: insect cell expression, purified as described previously [13]; not shown: HA, N-terminal, kept
In words: pull-down; 500 ng FLAG-MDM4 with 500 ng HA-HDM2 or HA-HDM2L468A in NP40 buffer (20 mM Tris-HCl pH 8.0, 150 mM NaCl, 0.5% NP40); anti-FLAG M2 beads, 1 hour at room temperature; eluted with 3xFLAG peptide; blot for HA. Conditions: both partners purified.

Experiment [2] deals with T2, HA-HDM2L468A (human, recombinant) (human, UniProt Q00987 1-491, L468A).
T2 construct: human MDM2 (HDM2) with L468A; also called HA-HDM2LA; mutant HDM2 (HA-HDM2L468A); source: insect cell expression, purified as described previously [13]; not shown: HA, N-terminal, kept
T2 sequence (Q00987 whole entry L468A): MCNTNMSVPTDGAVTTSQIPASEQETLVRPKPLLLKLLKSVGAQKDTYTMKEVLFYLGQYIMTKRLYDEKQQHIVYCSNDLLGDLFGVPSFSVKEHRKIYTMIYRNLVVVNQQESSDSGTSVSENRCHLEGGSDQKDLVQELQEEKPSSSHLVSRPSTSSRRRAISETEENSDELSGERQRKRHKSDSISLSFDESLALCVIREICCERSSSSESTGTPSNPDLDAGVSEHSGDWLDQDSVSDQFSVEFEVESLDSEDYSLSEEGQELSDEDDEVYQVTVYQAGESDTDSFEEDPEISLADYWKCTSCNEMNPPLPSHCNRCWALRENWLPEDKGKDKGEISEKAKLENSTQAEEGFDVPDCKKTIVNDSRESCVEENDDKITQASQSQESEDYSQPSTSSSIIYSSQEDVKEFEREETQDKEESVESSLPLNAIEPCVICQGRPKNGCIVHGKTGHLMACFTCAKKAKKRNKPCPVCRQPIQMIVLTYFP
The experiment is described as above. Conditions: both partners purified.

T1 sequence (Q00987 whole entry): as the sequence (Q00987 whole entry L468A) above, with A468L counted along it

B1: human recombinant FLAG-MDM4 (natural protein, UniProt O15151 1-490, looked up)
chain: MTSFSTSAQCSTSDSACRISPGQINQVRPKLPLLKILHAAGAQGEMFTVKEVMHYLGQYIMVKQLYDQQEQHMVYCGGDLLGELLGRQSFSVKDPSPLYDMLRKNLVTLATATTDAAQTLALAQDHSMDIPSQDQLKQSAEESSTSRKRTTEDDIPTLPTSEHKCIHSREDEDLIENLAQDETSRLDLGFEEWDVAGLPWWFLGNLRSNYTPRSNGSTDLQTNQDVGTAIVSDTTDDLWFLNESVSEQLGVGIKVEAADTEQTSEEVGKVSDKKVIEVGKNDDLEDSKSLSDDTDVEVTSEDEWQCTECKKFNSPSKRYCFRCWALRKDWYSDCSKLTHSLSTSDITAIPEKENEGNDVPDCRRTISAPVVRPKDAYIKKENSKLFDPCNSVEFLDLAHSSESQETISSMGEQLDNLSEQRTDTENMEDCQNLLKPCSLCEKRPRDGNIIHGRTGHLVTCFHCARRLKKAGASCPICKKEIQLVIKVFIA
notes: human MDM4 (HDM4); also called FLAG-M4; HDM4; source: insect cell expression, purified as described previously [13]; not shown: FLAG, N-terminal, kept
Take B1: the binding result in experiment [1] and in experiment [2] was “binds” each time.

(Values after publication PMC9119546, “MDM2 E3 ligase activity is essential for p53 regulation and cell cycle integrity” (PLoS Genetics, 2022).)
